Here are results for 3 substances from paper PMC6959990.

Experiment [1] addresses PCAT1(C21A) (Clostridium thermocellum) (UniProt A3DCU1). The experiment can be described thus: native MS; in 200 mM ammonium acetate pH 7.5 with 0.058% UDM (2X CMC); 4 µM PCAT1 monomer alone, or 4 µM PCAT1(C21A) monomer + 8 µM CtA (two-fold excess of CtA); abundances corrected for gas-phase dissociation.
Experiment [2] shares this target. The experiment can be described thus: cryo-EM structure; PCAT1(C21A) (5 mg/ml, 62 µM monomer) mixed with 62 µM refolded CtA, 30 min on ice, in UDM, no ATP.
Experiment [3] shares this target. The experiment can be described thus: native MS; in 200 mM ammonium acetate pH 7.5 with 0.5% C8E4 (2X CMC); 4 µM PCAT1 monomer alone, or 4 µM PCAT1(C21A) monomer + 8 µM CtA (two-fold excess of CtA); abundances corrected for gas-phase dissociation.
In experiment [4] the target is wt PCAT1 (Clostridium thermocellum) (UniProt A3DCU1). The experiment can be described thus: native MS; in 200 mM ammonium acetate pH 7.5 with 0.058% UDM (2X CMC); 4 µM PCAT1 monomer alone, or 4 µM PCAT1(C21A) monomer + 8 µM CtA (two-fold excess of CtA); abundances corrected for gas-phase dissociation.
The target is the same in experiment [5]. The experiment can be described thus: native MS; in 200 mM ammonium acetate pH 7.5 with 0.5% C8E4 (2X CMC); 4 µM PCAT1 monomer alone, or 4 µM PCAT1(C21A) monomer + 8 µM CtA (two-fold excess of CtA); abundances corrected for gas-phase dissociation.

CtA (natural protein): in experiment [1], the % abundance of the C21A-PCAT1 dimer + 1 CtA complex was found to be 25%, the % abundance of the C21A-PCAT1 dimer + 2 CtA complex was determined as 75% and the stoichiometry N (CtA per PCAT1 dimer) worked out at 2. In experiment [2], this substance displayed a stoichiometry N (CtA per PCAT1 transporter) of 2. In experiment [3], the % abundance of the C21A-PCAT1 dimer + 1 CtA complex is 16%, the % abundance of the C21A-PCAT1 dimer + 2 CtA complex was found to be 84% and the stoichiometry N (CtA per PCAT1 dimer) is 2.

Take “PCAT1(C21A) (from UniProt A3DCU1 1-727) (natural protein)”: the stoichiometry N in experiment [1] and in experiment [3] was 2 in each case.

For the substance “wt PCAT1 (from UniProt A3DCU1 1-727) (natural protein)”, the stoichiometry N in experiment [4] and in experiment [5] was 2 in each case.

A word on the stoichiometry N: it is a count of units in the complex or per binding partner.
